IC50 data for 8 molecules are collected here from US20110038881A1, “PROGNOSTIC ASSAY FOR DETERMINING T CELL RESPONSE TO HLA ANTIGENS AND USE THEREOF IN FIELD OF TISSUE TRANSPLANTATION” (priority 2007, published 2011).

First the molecules themselves.
B1: p3 (peptide)
chain: TSVSRPGRGEPRFIA
B2: p11 (peptide)
chain: PEYWDGETRKVKAHS
B3: p40 (peptide)
chain: RCWALSFYPAEITLT
B4: p15* (peptide)
chain: GTLRGYYNQSEAGSH
B5: p14* (peptide)
chain: VDLGTLRGYYNQSEA
B6: p25 (peptide)
chain: KDYIALKEDLRSWTA
B7: p10 (peptide)
chain: APWIEQEGPEYWDGE
B8: p8* (peptide)
chain: VRFDSDAASQRMEPR

The first assay concerns the target HLA-DRB1*0101 (human). In words: competition binding. Particulars: modification not given.
Regarding B1, the IC50 (commonly the concentration at which inhibition is half-maximal) is 648 nM.

For B2, the 50% inhibitory concentration (IC50) is 4950 nM.

The molecule B3 displayed an IC50 of 26 nM.

The molecule B4 came in with an IC50 of 406 nM.

B5 gave an IC50 of 209 nM.

With B6, the IC50 was 10 nM.

In turn, B7 showed an IC50 of 13000 nM.

On to B8, for which the IC50 is 14000 nM.

For another assay, the target named is HLA-DRB1*0301 (human). In words: competition binding. Particulars: modification not given.
B1 gave an IC50 of more than 100 µM.

Turning to B2, the half-maximal inhibitory concentration (IC50) was more than 100 µM.

B3: the IC50 turned out to be 5.23 µM.

Consider B4, for which the IC50 was more than 100 µM.

With B5, the IC50 is more than 100 µM.

Consider B6, for which the IC50 was 1.63 µM.

As to B7, the IC50 amounted to 49.7 µM.

B8 registered an IC50 of 1.4 µM.

In the next assay the target is HLA-DRB1*0401 (human). Briefly: competition binding. Particulars: modification not given.
Consider B1, for which the IC50 was determined as 5.48 µM. This lies in the single-digit micromolar range.

In turn, B2 gave an IC50 of 63.2 µM.

B3 gave an IC50 of 2 µM.

Regarding B4, the IC50 is 1.82 µM.

The molecule B5 showed an IC50 of 8.83 µM. This IC50 is about 4.9-fold higher than that of the molecule before.

In turn, B6 yielded an IC50 of 0.325 µM.

Molecule B7 yielded a half-maximal inhibitory concentration (IC50) of more than 100 µM.

In turn, B8 yielded an IC50 of 3.39 µM.

A further assay concerns the target HLA-DRB1*0701 (human). In words: competition binding. Particulars: modification not given.
B1: the IC50 turned out to be 6.93 µM.

For B2, the IC50 came out at 62.9 µM. This IC50 is about 9.1-fold higher than that of the molecule before.

In turn, B3 came in with an IC50 of 0.045 µM.

Turning to B4, the IC50 was found to be 2.96 µM.

The molecule B5 came in with an IC50 of more than 100 µM.

B6: the IC50 came out at 2.96 µM. In other words, the single-digit micromolar range.

Regarding B7, the IC50 turned out to be 79.4 µM.

As for B8, the IC50 was determined as 4.65 µM.

Another assay addresses HLA-DRB1*1101 (human). Briefly: competition binding. Particulars: modification not given.
Turning to B1, the half-inhibitory concentration (IC50) was determined as 1020 nM.

B2: the IC50 was 418 nM.

In turn, B3 displayed an IC50 of 40600 nM.

B4 yielded an IC50 of 1860 nM.

On to B5, for which the IC50 was determined as 1550 nM.

B6 registered an IC50 of 42 nM.

In turn, B7 showed an IC50 of 58100 nM.

In turn, B8 yielded an IC50 of 58300 nM.

In the next assay the target is HLA-DRB1*1301 (human). In words: competition binding. Particulars: modification not given.
B1 yielded an IC50 of more than 100 µM.

For B2, the IC50 was more than 100 µM.

On to B3, for which the IC50 is more than 100 µM.

B4 returned an IC50 of more than 100 µM.

As to B5, the 50% inhibitory concentration (IC50) was more than 100 µM.

In turn, B6 had an IC50 of 2.74 µM.

Turning to B7, the 50% inhibitory concentration (IC50) was more than 100 µM.

In turn, B8 had an IC50 of more than 100 µM.

A further assay concerns the target HLA-DRB1*1501 (human). Briefly: competition binding. Particulars: modification not given.
As to B1, the IC50 was 18700 nM.

B2 showed an IC50 of more than 100000 nM.

With B3, the concentration for half-maximal inhibition (IC50) was 28 nM.

The molecule B4 yielded an IC50 of 33 nM.

In the case of B5, the concentration for half-maximal inhibition (IC50) was 82 nM.

In turn, B6 returned an IC50 of 125 nM. Against the preceding molecule, the IC50 is about 1.5-fold higher.

For B7, the IC50 is 51200 nM.

B8 came in with an IC50 of more than 100000 nM.

In a further assay the target is HLA-DRB3*0101 (human). Briefly: competition binding. Particulars: modification not given.
Take B1: the IC50 was more than 100 µM.

B2: the IC50 is more than 100 µM.

B3 came in with an IC50 of 3.97 µM.

Molecule B4 had an IC50 of more than 100 µM.

On to B5, for which the IC50 is more than 100 µM.

Molecule B6 gave a half-maximal inhibitory concentration (IC50) of 85.5 µM.

B7 yielded an IC50 of 75 µM.

With B8, the IC50 worked out at 2.68 µM.

In a further assay the target is HLA-DRB4*0101 (human). In words: competition binding. Particulars: modification not given.
The molecule B1 gave a 50% inhibitory concentration (IC50) of more than 100 µM.

As to B2, the IC50 was more than 100 µM.

Turning to B3, the IC50 was found to be 4.52 µM.

B4 came in with an IC50 of more than 100 µM.

Take B5: the IC50 is more than 100 µM.

Take B6: the IC50 stood at 27.4 µM.

For the molecule B7, the IC50 is more than 100 µM.

The molecule B8 returned an IC50 of more than 100 µM.

The next assay deals with HLA-DRB5*0101 (human). Briefly: competition binding. Particulars: modification not given.
B1 gave a half-inhibitory concentration (IC50) of more than 100 µM.

Consider B2, for which the IC50 came out at 24.4 µM.

Turning to B3, the IC50 was 0.812 µM.

For B4, the IC50 came out at 0.612 µM.

B5 gave an IC50 of 11 µM.

Regarding B6, the IC50 is 0.052 µM.

B7: the IC50 was found to be 73.5 µM.

Regarding B8, the IC50 was 3.58 µM. This IC50 lies about 21-fold lower than the previous one.
